Results reported in IntAct's records for PubMed 24291789.

B1: Cohesin subunit psc3 (Schizosaccharomyces pombe (strain ATCC 38366 / 972)), O13816 (parent)
chain: MSESVTTGSDDDGGDRESSPVMLSQSFDPMSSSSNSSSEENSDDDYEKTISSKKRHPRPNSKGVNVKRSRRNAIVEEDPQEEIFNNLFAFLLDQKVDTMDIAVSWFADYAKDNQSALANLINFILKCCGCNRAINVFDVQDQDSASATLSQIQLSVERTSTRDYPLNSKNLKFRNFRKRLTGLLSNFVSQLSIRNYLYNSTVFEDIMSWVVAMSSSTMRPIRHTATVFCLNIMTFLCEKSKELLNEHAIATKQLEKEEKRSRVNRNRINELNNSLGEIVKQQDTLTTYLNDYFDSVFVHRYRDVEPKIRVDCLQELGVWINTVPSIFFSGSYLRYLGWMLSDINTTVRLTVVKVLRKFFETDSFIGGLRHFSSRFKERILEMSCVDADIGVRVASIRLCNAMRTCGFLENSEILKVLKLILDINPRVQREAVLFLCKVVDESVNEKIDLWGEEDYILKAFSQTSLTTFSVHWIKFSQMCKLLEEVRLSYQSSFDYDTLLRIFQKNGNFITPITQALLNACEIDSIYQSWEDISNFVLFDNYTSTLKDPIDSILSFCKLNDFQESILLQLLSASIQTVCNNNFITPKTVHNKQAAETTNDQNKDKDLLYLNLLPYINSITERNSASPTLLHDSLRLLFSMDLTEMTDPQLSRHFELLINNLKKFFLTNNDLQIIQGCTILFLRLDSIPALKEDLKLLVTDICDQTVTEFLKNFGSFNIQDAVITKDEFVIFEACLTRIEGCTSLKDFSDYPEFDIIYERLVSLLSRVPNSYEDTLKFSAINTLQSLLFWFFLRKDNPADEEKKKDDETKVFNCLINIMNNDSSKILQLQAARTFLETVIMKEGVKASHYNDDNRVSEEHNFLKPQFLDALLKILEGWLYTYAKVGQFPFKRLTQASSPHTQISLDKNPLNRRLLEHVCCDLTSKLLIVVSLSNTITPEFSQQFCELRGHYGPKLSAIVDEFLN

Variants of: B1
Details: with mis4_schpo mis4, Q09725
Chain of mis4_schpo mis4, Q09725 (Q09725 whole entry): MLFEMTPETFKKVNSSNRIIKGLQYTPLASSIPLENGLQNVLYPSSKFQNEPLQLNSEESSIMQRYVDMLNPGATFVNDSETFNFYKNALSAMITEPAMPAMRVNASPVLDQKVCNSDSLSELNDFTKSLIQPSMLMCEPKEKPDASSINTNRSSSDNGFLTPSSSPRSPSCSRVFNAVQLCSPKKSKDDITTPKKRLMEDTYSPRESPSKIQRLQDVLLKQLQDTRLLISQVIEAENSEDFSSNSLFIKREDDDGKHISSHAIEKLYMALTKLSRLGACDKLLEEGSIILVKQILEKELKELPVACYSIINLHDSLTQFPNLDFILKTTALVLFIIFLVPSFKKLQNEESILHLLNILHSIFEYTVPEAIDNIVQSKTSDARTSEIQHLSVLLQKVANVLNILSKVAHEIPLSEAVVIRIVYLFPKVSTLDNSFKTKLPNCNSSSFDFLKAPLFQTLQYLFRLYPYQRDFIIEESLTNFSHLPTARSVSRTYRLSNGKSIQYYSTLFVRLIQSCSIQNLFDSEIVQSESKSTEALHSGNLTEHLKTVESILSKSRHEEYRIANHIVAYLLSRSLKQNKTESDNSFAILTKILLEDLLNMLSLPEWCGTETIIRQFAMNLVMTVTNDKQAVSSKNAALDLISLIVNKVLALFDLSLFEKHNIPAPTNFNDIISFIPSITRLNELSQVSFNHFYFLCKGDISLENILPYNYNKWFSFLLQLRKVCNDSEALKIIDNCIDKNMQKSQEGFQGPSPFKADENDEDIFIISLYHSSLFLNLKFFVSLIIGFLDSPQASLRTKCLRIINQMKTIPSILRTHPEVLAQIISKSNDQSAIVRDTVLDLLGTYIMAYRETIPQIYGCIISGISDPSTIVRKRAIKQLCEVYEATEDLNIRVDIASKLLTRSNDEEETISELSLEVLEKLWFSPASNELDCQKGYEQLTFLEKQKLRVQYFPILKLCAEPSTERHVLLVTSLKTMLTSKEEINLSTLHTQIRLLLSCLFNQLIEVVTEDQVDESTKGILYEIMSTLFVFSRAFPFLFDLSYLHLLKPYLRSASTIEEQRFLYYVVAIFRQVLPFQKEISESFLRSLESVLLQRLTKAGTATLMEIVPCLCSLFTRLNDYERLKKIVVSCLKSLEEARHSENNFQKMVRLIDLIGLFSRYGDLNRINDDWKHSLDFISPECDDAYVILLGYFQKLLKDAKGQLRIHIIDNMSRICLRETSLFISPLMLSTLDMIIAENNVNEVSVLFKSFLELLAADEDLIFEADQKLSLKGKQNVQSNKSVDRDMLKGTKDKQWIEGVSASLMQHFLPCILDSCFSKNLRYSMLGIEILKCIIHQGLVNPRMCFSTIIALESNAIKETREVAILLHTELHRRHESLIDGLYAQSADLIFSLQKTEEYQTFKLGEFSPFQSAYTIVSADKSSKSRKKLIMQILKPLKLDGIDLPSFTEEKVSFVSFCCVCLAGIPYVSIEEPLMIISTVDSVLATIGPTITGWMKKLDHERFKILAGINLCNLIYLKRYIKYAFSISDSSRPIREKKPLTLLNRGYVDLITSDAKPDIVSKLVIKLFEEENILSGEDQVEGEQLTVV

effect of a mutation on the interaction | Variant
decreasing interaction strength | P306L
decreasing interaction strength | R300G
